These are literature values, as cited in paper PMC8608346.

The data set deals with FPR1 (Homo sapiens) (UniProt P21462).
Chain of UniProt P21462 (P21462 whole entry): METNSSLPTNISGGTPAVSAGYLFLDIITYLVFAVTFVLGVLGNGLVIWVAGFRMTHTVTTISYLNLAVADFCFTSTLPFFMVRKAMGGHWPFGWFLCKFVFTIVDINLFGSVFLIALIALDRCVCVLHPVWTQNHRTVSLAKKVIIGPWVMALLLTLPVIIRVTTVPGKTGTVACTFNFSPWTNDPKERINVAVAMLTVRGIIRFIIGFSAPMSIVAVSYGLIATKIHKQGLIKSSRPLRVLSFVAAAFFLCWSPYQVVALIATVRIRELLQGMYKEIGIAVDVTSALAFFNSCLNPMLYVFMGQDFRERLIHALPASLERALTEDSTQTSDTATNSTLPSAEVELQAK

One may read the Kd as the equilibrium constant for the complex coming apart. Regarding FAM19A4 (from UniProt Q96LR4), the Kd is 0.447 nM.
